Results from the supplement of paper PMC12764529.
± gives the half width of the 95% confidence interval.

Columns and labels:
[1] = folding stability dG unfold from trypsin proteolysis; higher = more stable
Summary of the method: (§1)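 Sequencing followed digestion of designed mini-proteins with trypsin and chymotrypsin, each at 11 concentrations in threefold dilutions together with a no-protease condition. The mini-proteins were under 80 residues, had no cysteine, sat in a PA-tagged cDNA display construct, and were kept only if AlphaFold2 dimer inter-PAE was above 15. From the counts, Bayesian fitting gave K50, and unfolding free energy was derived against a sequence-predicted unfolded-state K50 and a shared folded-state K50, per protease or combined.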

[2] = folding stability dG unfold from chymotrypsin proteolysis; higher = more stable
Summary of the method: as §1

[3] = folding stability dG unfold (combined trypsin and chymotrypsin); higher = more stable
Summary of the method: as §1

Sequence: SAGGPLVVEAKVEGDTVTIRLPNGEEFTAHPDATLFLPNGERVFFEPVSDDVVIATVVPLPEDAEFPSAGGS [r16_277_TrMRF]
- folding stability dG unfold [1]: 0.359 ± 0.034 kcal/mol
- folding stability dG unfold [2]: -0.0303 ± 0.13 kcal/mol
- folding stability dG unfold [3]: 0.212 ± 0.085 kcal/mol

Sequence: SAGGSAGGSLTVSFPGITLTLETVPGTGKIIATVTFPGGEVRTISSDVPLSELPPVVREALELLSAGGSAGG [r6_749_JUSTAS]
- folding stability dG unfold [1]: 2.72 ± 0.087 kcal/mol
- folding stability dG unfold [2]: 2.67 ± 0.051 kcal/mol
- folding stability dG unfold [3]: 2.74 ± 0.072 kcal/mol

Sequence: SMEILEMDIEEILSLLPEDIHPDVPYTLTVPGLEIRILDVAPVREEEGGPRPTTVIEVFLPDGPVVFPLESA [r9_279_TrMRF]
- folding stability dG unfold [1]: 0.872 ± 0.042 kcal/mol
- folding stability dG unfold [2]: 1.26 ± 0.069 kcal/mol
- folding stability dG unfold [3]: 1.11 ± 0.12 kcal/mol

Sequence: SAGGSAGGSLTIRFPEELSPEEAVELAEGLVRELFPEDVPVTVTVVFYDPETGEELTIPAELASAGGSAGGS [r12_1051_TrMRF]
- folding stability dG unfold [1]: 1.49 ± 0.039 kcal/mol
- folding stability dG unfold [2]: 1.35 ± 0.025 kcal/mol
- folding stability dG unfold [3]: 1.43 ± 0.044 kcal/mol

Sequence: SAGGSRTVLLYDPDNPRPYIVEYDPATGTLRIYDPETGELVAEFPIPDLKDIEAPVVPNGILLGAIVDSAGG [r13_720_TrMRF]
- folding stability dG unfold [1]: 1.03 ± 0.023 kcal/mol
- folding stability dG unfold [2]: 1.998 ± 0.018 kcal/mol
- folding stability dG unfold [3]: 1.68 ± 0.075 kcal/mol

Sequence: SAGGSAGGSAGSGTMFDFGSASVETLEEDPNGRVLVKVTLPDSEYLLEIVKGELVKIEPRSAGGSAGGSAGG [r17_396_JUSTAS]
- folding stability dG unfold [1]: -0.274 ± 0.28 kcal/mol
- folding stability dG unfold [2]: 0.858 ± 0.059 kcal/mol
- folding stability dG unfold [3]: 0.569 ± 0.12 kcal/mol

Sequence: SRIKITVKPKPDGNFYIKIWFPNNGKPFIFPIKNPDAMDEARDDPGQTIEVPEDYLRSLFPDNFTDVEIVSA [r9_390_TrROS]
- folding stability dG unfold [1]: 1.31 ± 0.015 kcal/mol
- folding stability dG unfold [2]: 1.16 ± 0.12 kcal/mol
- folding stability dG unfold [3]: 1.25 ± 0.064 kcal/mol

Sequence: SAGGSAGGSAGGMKTITLTTTSPEEAEAAKEKLLKEGPNNLVITYKPPPEPYPENGPRVVSAGGSAGGSAGG [r7_261_JUSTAS]
- folding stability dG unfold [1]: -0.294 ± 0.25 kcal/mol
- folding stability dG unfold [2]: 0.743 ± 0.14 kcal/mol
- folding stability dG unfold [3]: 0.683 ± 0.21 kcal/mol

Sequence: SAGGSAGGSDTIVVTLPDGTKITYDKENNEVYVYNLKTKKKIKFPKNMSLEEVLKAIKKLKKPSAGGSAGGS [r12_832_TrROS_Hall]
- folding stability dG unfold [1]: 2 ± 0.07 kcal/mol
- folding stability dG unfold [2]: 2.982 ± 0.026 kcal/mol
- folding stability dG unfold [3]: 2.71 ± 0.082 kcal/mol

Sequence: SAGEVKPGETVTLTIVLSKEELEKLEELAKALPGVEVTEVKVEKLPDGLVRVTITVTKEALEKLKELLESAG [r5_554_TrROS_Hall]
- folding stability dG unfold [1]: 3.28 ± 0.21 kcal/mol
- folding stability dG unfold [2]: 3.71 ± 0.22 kcal/mol
- folding stability dG unfold [3]: 3.5 ± 0.19 kcal/mol

Sequence: SAGGSAMVDKTMTEEEARAFAEASGDPRVTVEPVENPNNDPNAPKKWRITVDGSGTPGSTILFTSPSAGGSA [r15_428_JUSTAS]
- folding stability dG unfold [1]: -0.398 ± 0.12 kcal/mol
- folding stability dG unfold [2]: -0.928 ± 0.28 kcal/mol
- folding stability dG unfold [3]: -0.55 ± 0.089 kcal/mol

Sequence: SAGGSAGPKVEVELFPVPPFAPGSEFVLLVKTEDGDVILQRFRVKLEGNEPKIEPLGSIVLKPDELSAGGSA [r15_636_TrMRF]
- folding stability dG unfold [1]: 1.08 ± 0.036 kcal/mol
- folding stability dG unfold [2]: 2.09 ± 0.062 kcal/mol
- folding stability dG unfold [3]: 1.78 ± 0.1 kcal/mol

Sequence: SAGGSAGGSAGPENKNYMVMEMTIDIWIPLPPNAKVVFDPDEGKWKYVPIKIPIRIVMPWSAGGSAGGSAGG [r11_257_TrROS]
- folding stability dG unfold [1]: 2.91 ± 0.14 kcal/mol
- folding stability dG unfold [2]: 3.43 ± 0.12 kcal/mol
- folding stability dG unfold [3]: 3.2 ± 0.15 kcal/mol

Sequence: SAGGSAGGSAGGMSVTVSREKLPDGSYLVTVTTEVGGGPVTTPYRVPPSLSSAEEVVEKLSAGGSAGGSAGG [r7_75_JUSTAS]
- folding stability dG unfold [1]: -0.0439 ± 0.14 kcal/mol
- folding stability dG unfold [2]: -0.659 ± 0.51 kcal/mol
- folding stability dG unfold [3]: -0.23 ± 0.2 kcal/mol

Sequence: SAGGSAGGSAGGAPDLSLPDVRPRVLVRNPATGKWYEFTSLEELEREIKSGRAEVLEISSAGGSAGGSAGGS [r10_520_TrMRF]
- folding stability dG unfold [1]: 0.327 ± 0.088 kcal/mol
- folding stability dG unfold [2]: 0.704 ± 0.11 kcal/mol
- folding stability dG unfold [3]: 0.573 ± 0.16 kcal/mol

Sequence: SAGGSAGGMTITLRIKITNPDGEEKEIEVELELPEELKGKTLEELAAELAKALLPPGAKVEVEPSAGGSAGG [r6_821_TrROS_Hall]
- folding stability dG unfold [1]: 1.73 ± 0.048 kcal/mol
- folding stability dG unfold [2]: 3.15 ± 0.074 kcal/mol
- folding stability dG unfold [3]: 2.72 ± 0.14 kcal/mol

Sequence: SAGGSAGGSPVIAVRVKRIEVTYDAATGRLTVRIEVEVDGKTYTITVPPGAEIKPGDTLLIEPSAGGSAGGS [r20_49_TrROS_Hall]
- folding stability dG unfold [1]: 4.23 ± 0.098 kcal/mol
- folding stability dG unfold [2]: 4.434 ± 0.038 kcal/mol
- folding stability dG unfold [3]: 4.375 ± 0.041 kcal/mol

Sequence: SAGGSAGGRLLLVKITLPDGEEITIVLEFESEEEARAAAEALLPPGAKVEVRELSEEELEALLKSAGGSAGG [r6_267_TrROS_Hall]
- folding stability dG unfold [1]: 3.09 ± 0.049 kcal/mol
- folding stability dG unfold [2]: 3.37 ± 0.044 kcal/mol
- folding stability dG unfold [3]: 3.31 ± 0.052 kcal/mol

Sequence: SAGGSAPIRIIKDPEKGTIMIRVPGPITVNQELKLRDENGKPWEIKNVEVERVGGRLIITMKVEPASAGGSA [r15_838_TrROS]
- folding stability dG unfold [1]: 1.19 ± 0.052 kcal/mol
- folding stability dG unfold [2]: 1.24 ± 0.19 kcal/mol
- folding stability dG unfold [3]: 1.29 ± 0.11 kcal/mol

Sequence: SAGMNLKIEVSVTPQEFELVEKDEEGNLIKPVKQKATVVTTTTTLPDGTVTTTRSLFLDGELVATSTGSAGG [r19_44_JUSTAS]
- folding stability dG unfold [1]: 0.716 ± 0.015 kcal/mol
- folding stability dG unfold [2]: 1.03 ± 0.044 kcal/mol
- folding stability dG unfold [3]: 0.972 ± 0.098 kcal/mol

Sequence: SAGGSVVTTTFTYPDGTVVTTTTTPRPETLLTTTTTTTFYPDKPVKVAPGKEVVTTVTTTTTTVTPAASAGG [r13_780_JUSTAS]
- folding stability dG unfold [1]: 0.378 ± 0.03 kcal/mol
- folding stability dG unfold [2]: 0.574 ± 0.12 kcal/mol
- folding stability dG unfold [3]: 0.54 ± 0.069 kcal/mol
